Patent US20070071744A1

Legend:
Test in all cases: PepSpot peptide array
[1] = target: T1, peptide 117 (human)
T1 sequence (peptide, N-terminus acetylated): SFTNKVFTTETSR

[2] = target: T2, peptide 118 (human)
T2 sequence (peptide, N-terminus acetylated): TNKVFTTETSRSI

[3] = target: T3, peptide 7 (human)
T3 sequence (peptide, N-terminus acetylated): LCLGRVPAQSGPL

B1: monoclonal antibody hGP 5C4 (antibody, V domains shown)
VH: EVKLQESGGGLVQPGRSLKLSCTASGFTFSDYFMSWVRQAPTRGLEWVASISSGGASAYWRDSVKGRFTISRDNAKSALYLQMDSLRSEDTATYFCARGELDFDYWGQGVMVAVSS
VL: ADPNSTLLSASVGDRVTLNCTASQNVYKNLAWYQQKLGEAPRLLLYSANSQTGIPSRFSGSGSGPDFTLTISSLQPEDVASYFCQQYYSGNTFGAGTKLELKR
[1]
  LU (Light Units): 472 LU
[2]
  LU (Light Units): 336 LU
[3]
  LU (Light Units): 292 LU
